Our source for the IC50 values is patent US5723299, “Somatostatin receptors” (Arch Development Corporation, dated 1998).

Experiment [1] concerns the target T1, mouse somatostatin receptor SSTR2 (mouse).
T1 chain: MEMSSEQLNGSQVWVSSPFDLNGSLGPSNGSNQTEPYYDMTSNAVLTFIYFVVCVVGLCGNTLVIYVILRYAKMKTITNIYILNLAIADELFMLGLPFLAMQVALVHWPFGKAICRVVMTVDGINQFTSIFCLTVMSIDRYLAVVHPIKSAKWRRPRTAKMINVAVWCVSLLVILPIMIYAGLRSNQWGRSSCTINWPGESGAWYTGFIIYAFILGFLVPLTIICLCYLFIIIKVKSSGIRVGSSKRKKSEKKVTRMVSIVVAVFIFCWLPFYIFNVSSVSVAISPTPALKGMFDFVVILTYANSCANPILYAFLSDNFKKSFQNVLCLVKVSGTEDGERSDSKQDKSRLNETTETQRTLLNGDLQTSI
As to the kind of experiment: competition of [125I]iodo-Tyr11-somatostatin-14 binding to CHO cells transfected with mouse SSTR2.
From the text: At 1.5 PstI/XmnI fragment of the human SSTR1 gene and a 1.2 kb XbaI fragment of the mouse SSTR2 gene were inserted into the mammalian expression vectors pCMV6b and 6c, respectively (a gift of Dr. B. Chapman, Chiron Corp., Emeryville, Calif.). The resulting constructs were co-transfected with pSV2neo into the dihydrofolate reductase-deficient Chinese hamster ovary (CHO) cell line, DG44, using Lipofectin Reagent (GIBCO BRL, Gaithersburg, Md.). Stable transfectants were selected and maintained in α-MEM (GIBCO BRL) containing 400 vg/ml G418. Each cell line was grown to confluency in 6-well, 35-mm diameter plates at 37° C. The cells were washed with buffer containing 10 mM HEPES, 5 mM KH_2PO_4, 5 mM MgCl_2, 150 mM NaCl, and 1% (wt./vol.) bovine serum albumin (all at pH 7.4), and were stabilized in the same buffer for 30 min at 22° C. […] Incubated cells were washed twice with 2-ml portions of ice-cold buffer and were dissolved in 1 ml of 8M urea in 3M acetic acid. The suspended cells were transferred to a tube, the well was washed with 1 ml of the same solution, and the combined extracts were measured for radioactivity by use of a gamma-counter.

For experiment [2], the target named is human somatostatin receptor SSTR1 (human). As to the kind of experiment: competition of [125I]iodo-Tyr11-somatostatin-14 binding to CHO cells stably expressing human SSTR1.
Method: The resulting constructs were co-transfected with pSV2neo into the dihydrofolate reductase-deficient Chinese hamster ovary (CHO) cell line, DG44, using Lipofectin Reagent (GIBCO BRL, Gaithersburg, Md.). Stable transfectants were selected and maintained in α-MEM (GIBCO BRL) containing 400 vg/ml G418. Each cell line was grown to confluency in 6-well, 35-mm diameter plates at 37° C. The cells were washed with buffer containing 10 mM HEPES, 5 mM KH_2PO_4, 5 mM MgCl_2, 150 mM NaCl, and 1% (wt./vol.) bovine serum albumin (all at pH 7.4), and were stabilized in the same buffer for 30 min at 22° C. […] Incubated cells were washed twice with 2-ml portions of ice-cold buffer and were dissolved in 1 ml of 8M urea in 3M acetic acid. The suspended cells were transferred to a tube, the well was washed with 1 ml of the same solution, and the combined extracts were measured for radioactivity by use of a gamma-counter.
The pharmacological characteristics of SSTR1 were examined in CHO cells that were stably expressing this receptor.

No end group written: not given here.

Sequence of human somatostatin receptor SSTR1 (human) (chain, as listed by the source): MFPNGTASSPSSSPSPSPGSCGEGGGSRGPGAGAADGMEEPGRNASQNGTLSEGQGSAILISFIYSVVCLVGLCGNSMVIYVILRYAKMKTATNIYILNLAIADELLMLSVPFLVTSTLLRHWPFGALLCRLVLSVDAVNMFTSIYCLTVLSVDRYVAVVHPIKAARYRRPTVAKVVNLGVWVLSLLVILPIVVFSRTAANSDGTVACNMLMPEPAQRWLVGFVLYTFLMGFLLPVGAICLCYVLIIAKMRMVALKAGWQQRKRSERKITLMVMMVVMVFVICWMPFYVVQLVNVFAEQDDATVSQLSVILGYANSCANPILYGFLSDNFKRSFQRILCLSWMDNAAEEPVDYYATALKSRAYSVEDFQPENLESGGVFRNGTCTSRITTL

B1: somatostatin-14 (peptide)
peptide: AGCKNFFWKTFTSC
modifications: not fully specified (bridges); cysteine pairing not given here
For orientation: IC50 means the concentration needed to halve the response being measured. The low end stands for greater potency, the high end for weaker potency. With B1, in experiment [1], the IC50 was 1.6 nM.

B2: somatostatin-28 (peptide)
peptide: SANSNPAMAPRERKAGCKNFFWKTFTSC
B2 registered an IC50 in experiment [2] of 4.7 nM.
